Among the data in publication PMC6170606, “Biological and Biochemical Roles of Two Distinct Cyclic Dimeric Adenosine 3′,5′-Monophosphate- Associated Phosphodiesterases in Streptococcus mutans” (Frontiers in Microbiology, 2018) are Km, Vmax and kcat values, retold here.

Series [1] concerns Nc1ncnc2c1ncn2[C@@H]1O[C@H](COP(=O)(O)O[C@H]2[C@@H](O)[C@H](n3cnc4c(N)ncnc43)O[C@@H]2COP(=O)(O)O)[C@@H](O)[C@H]1O. Put plainly: initial rate, LC quantification of end product AMP (A254). It counts as biochemical, Streptococcus mutans. The settings on record: 50 mM potassium phosphate pH 7.0, 1 mM MnCl2, 0-0.3 mM substrate. An excerpt:
initial rate, LC quantification of end product AMP (A254) on rDhhP-ProS2 (recombinant DhhP, SMU_1297)

Series [2] concerns [H][C@@]1(O)[C@]2([H])OP(=O)(O)OC[C@@]3([H])O[C@@]([H])(n4cnc5c(N)ncnc54)[C@]([H])(O)[C@]3([H])OP(=O)(O)OC[C@@]2([H])O[C@@]1([H])n1cnc2c(N)ncnc21. Put plainly: purified protein. The settings on record: 50 mM potassium phosphate pH 5.0, 1 mM MnCl2, 0-0.3 mM substrate.
From the text: initial rate, LC quantification of end product pApA (A254) on rGdpP109-657-ProS2 (truncated recombinant GdpP, SMU_2140c)

For the substance “rDhhP-ProS2 (recombinant DhhP, SMU_1297) (Streptococcus mutans UA159)”, in series [1], the Km amounted to 199 ± 65.4 µM, the Vmax amounted to 32.1 µmol/min/mg and the kcat came to 36.5 ± 8.08 s⁻¹.

Regarding “rGdpP109-657-ProS2 (truncated recombinant GdpP, SMU_2140c) (Streptococcus mutans UA159)”, in series [2], the Km was 89.7 ± 7.29 µM, the Vmax turned out to be 4.58 µmol/min/mg and the kcat is 4.02 ± 0.2 s⁻¹.

For orientation: Km means the concentration of substrate that gives half-maximal velocity. In general, Vmax refers to the rate approached at saturating substrate. For orientation: kcat means the maximal rate divided by the concentration of active sites.
